Measurements reported in article PMC4752722 (Cell, 2016).

Biological target: the molecule itself
Test: cross-linking

B1: CorA double cysteine mutant V183C/A8C (natural protein, Thermotoga maritima)
chain: MEEKRLSCKKGLPPGTLVYTGKYREDFEIEVMNYSIEEFREFKTTDVESVLPFRDSSTPTWINITGIHRTDVVQRVGEFFGIHPLVLEDILNVHQRPKVEFFENYVFIVLKMFTYDKNLHELESEQVSLILTKNCVLMFQEKIGDVFDPVRERIRYNRGIIRKKRADYLLYSLIDALVDDYFCLLEKIDDEIDVLEEEVLERPEKETVQRTHQLKRNLVELRKTIWPLREVLSSLYRDVPPLIEKETVPYFRDVYDHTIQIADTVETFRDIVSGLLDVYLSSVSNKTNEVMKVLTIIATIFMPLTFIAGIYGMNFEYMPELRWKWGYPVVLAVMGVIAVIMVVYFKKKKWL
B1 was tested, and the “stoichiometry N” value was 5.
